# Source: US20240400614A1, “CLEAVABLE PEPTIDES AND METHODS OF USE THEREOF” (Bright Peak Therapeutics AG, priority 2023, published 2024)
# Square brackets hold non-standard residues; d marks the D form. Ends that are not written are not given here. Tyr(3-NO2) = N[C@@H](Cc1ccc(O)c([N+](=O)[O-])c1)C(=O)O; 2Abz = Nc1ccccc1C(=O)O
# Key:
# Assay type in all cases: biochemical
# [1] = molecular target: T1, MMP-2 (Homo sapiens, UniProt P08253); experiment: FRET peptide cleavage efficiency with MMP-2
# T1 construct: purchased SIGMA PF023
# T1 sequence (P08253 110-660): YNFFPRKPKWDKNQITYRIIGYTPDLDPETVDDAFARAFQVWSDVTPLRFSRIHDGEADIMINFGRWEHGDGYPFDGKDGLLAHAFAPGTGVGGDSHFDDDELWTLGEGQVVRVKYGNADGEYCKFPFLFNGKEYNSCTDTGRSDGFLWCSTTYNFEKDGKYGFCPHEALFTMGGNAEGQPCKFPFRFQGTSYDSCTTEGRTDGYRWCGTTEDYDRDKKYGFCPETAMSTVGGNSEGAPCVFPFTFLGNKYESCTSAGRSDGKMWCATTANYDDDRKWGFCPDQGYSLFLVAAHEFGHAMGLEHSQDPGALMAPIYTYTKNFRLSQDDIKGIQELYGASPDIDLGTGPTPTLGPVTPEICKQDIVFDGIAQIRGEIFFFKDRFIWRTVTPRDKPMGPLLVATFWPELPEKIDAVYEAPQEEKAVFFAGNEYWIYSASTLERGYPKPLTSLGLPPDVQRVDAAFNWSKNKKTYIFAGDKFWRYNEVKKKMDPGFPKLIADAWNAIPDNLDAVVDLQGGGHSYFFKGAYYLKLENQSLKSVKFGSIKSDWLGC
# [2] = molecular target: T2, matriptase (Homo sapiens, UniProt Q9Y5Y6); experiment: FRET peptide cleavage efficiency with matriptase
# T2 construct: purchased R&D Systems 3946-SEB
# T2 sequence (Q9Y5Y6 615-855 limits assumed): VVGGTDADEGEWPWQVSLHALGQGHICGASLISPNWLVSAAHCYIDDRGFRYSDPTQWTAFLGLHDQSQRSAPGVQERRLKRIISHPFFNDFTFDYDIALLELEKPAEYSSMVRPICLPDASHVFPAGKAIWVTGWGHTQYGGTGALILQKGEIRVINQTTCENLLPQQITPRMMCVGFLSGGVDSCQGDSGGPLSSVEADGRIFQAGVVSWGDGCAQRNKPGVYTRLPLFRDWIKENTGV
# [3] = molecular target: T3, MMP-7 (Homo sapiens, UniProt P09237); experiment: FRET peptide cleavage efficiency with MMP-7 (standard pH 7.5; also pH 6.5); settings: for % cleavage MMP-7 t = 15 min: t = 15 min (Table 9); for % cleavage MMP-7 t = 60 min: t = 60 min (Table 9); for % cleavage MMP-7 t = 120 min: t = 120 min (Table 9)
# T3 construct: purchased SIGMA CC1059
# T3 sequence (P09237 95-267): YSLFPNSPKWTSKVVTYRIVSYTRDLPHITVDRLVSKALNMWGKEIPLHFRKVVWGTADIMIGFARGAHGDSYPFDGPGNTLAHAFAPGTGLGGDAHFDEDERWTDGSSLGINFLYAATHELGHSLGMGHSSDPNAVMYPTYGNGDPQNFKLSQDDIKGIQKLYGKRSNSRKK
# [4] = molecular target: T4, MMP-9 (Homo sapiens, UniProt P14780); experiment: FRET peptide cleavage efficiency with MMP-9 (standard pH 7.5; also pH 6.5); settings: for % cleavage MMP-9 t = 15 min: t = 15 min (Table 9); for % cleavage MMP-9 t = 60 min: t = 60 min (Table 9); for % cleavage MMP-9 t = 120 min: t = 120 min (Table 9)
# T4 construct: purchased SIGMA PF024
# T4 sequence (P14780 94-707): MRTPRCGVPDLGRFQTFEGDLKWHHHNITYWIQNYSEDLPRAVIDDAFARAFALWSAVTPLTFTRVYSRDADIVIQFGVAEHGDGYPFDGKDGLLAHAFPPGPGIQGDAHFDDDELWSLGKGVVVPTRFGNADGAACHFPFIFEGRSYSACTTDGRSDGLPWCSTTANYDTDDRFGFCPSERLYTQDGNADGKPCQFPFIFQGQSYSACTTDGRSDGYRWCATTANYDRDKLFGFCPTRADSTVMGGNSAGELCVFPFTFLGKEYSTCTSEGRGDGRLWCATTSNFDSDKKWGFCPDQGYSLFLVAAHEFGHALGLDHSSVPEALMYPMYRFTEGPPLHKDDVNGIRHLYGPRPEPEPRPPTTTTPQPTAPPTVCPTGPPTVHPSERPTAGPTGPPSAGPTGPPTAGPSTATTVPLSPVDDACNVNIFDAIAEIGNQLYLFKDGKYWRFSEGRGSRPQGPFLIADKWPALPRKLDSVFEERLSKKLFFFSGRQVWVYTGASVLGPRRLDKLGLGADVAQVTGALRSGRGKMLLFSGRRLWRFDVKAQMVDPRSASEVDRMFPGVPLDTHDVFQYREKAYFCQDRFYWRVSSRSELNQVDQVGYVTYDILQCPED
# [5] = molecular target: uPA (Homo sapiens, UniProt P00749); experiment: FRET peptide cleavage efficiency with uPA
# [6] = t = 15 min, 200 uM linker, 1 ug/ml protease, 37° C., buffer C pH 7.5
# [7] = t = 60 min, 200 uM linker, 1 ug/ml protease, 37° C., buffer C pH 7.5
# [8] = t = 120 min, 200 uM linker, 1 ug/ml protease, 37° C., buffer C pH 7.5
# [9] = t = 15 min, 200 uM linker, 1 ug/ml protease, 37° C., buffer B pH 9.0
# [10] = t = 60 min, 200 uM linker, 1 ug/ml protease, 37° C., buffer B pH 9.0
# [11] = 200 uM linker, 1 ug/ml protease, 37° C., buffer B pH 9.0
# [12] = 200 uM linker, 1 ug/ml protease, 37° C., buffer A pH 8.5
# [13] = t = 60 min, 200 uM linker, 1 ug/ml protease, 37° C., buffer A pH 8.5
# [14] = t = 120 min, 200 uM linker, 1 ug/ml protease, 37° C., buffer A pH 8.5
Sequence,"% cleavage MMP-2 t = 15 min ([1]; pH 6.5, t = 15 min (Table 7)) [%]","% cleavage MMP-2 t = 60 min ([1]; pH 6.5, t = 60 min (Table 7)) [%]","% cleavage MMP-2 t = 15 min ([1]; pH 7.5, t = 15 min (Table 7)) [%]","% cleavage MMP-2 t = 60 min ([1]; pH 7.5, t = 60 min (Table 7)) [%]",% cleavage MMP-2 t = 15 min ([1]; t = 15 min (Table 9)) [%],"% cleavage MMP-2 t = 15 min [1, 6] [%]",% cleavage MMP-2 t = 60 min ([1]; t = 60 min (Table 9)) [%],"% cleavage MMP-2 t = 60 min [1, 7] [%]",% cleavage MMP-2 t = 120 min ([1]; t = 120 min (Table 9)) [%],"% cleavage MMP-2 t = 120 min [1, 8] [%]","% cleavage Matriptase t = 15 min ([2]; pH 6.5, t = 15 min (Table 7)) [%]","% cleavage Matriptase t = 60 min ([2]; pH 6.5, t = 60 min (Table 7)) [%]","% cleavage Matriptase t = 15 min ([2]; pH 7.5, t = 15 min (Table 7)) [%]","% cleavage Matriptase t = 60 min ([2]; pH 7.5, t = 60 min (Table 7)) [%]","% cleavage Matriptase t = 15 min [2, 9] [%]","% cleavage Matriptase t = 60 min [2, 10] [%]","% cleavage Matriptase t = 120 min [2, 11] [%]",% cleavage MMP-7 t = 15 min [3] [%],% cleavage MMP-7 t = 60 min [3] [%],% cleavage MMP-7 t = 120 min [3] [%],other results
SSRGRRGPYMLQG ([2Abz]SSRGRRGPYMLQG[Tyr(3-NO2)]-NH2) [LNK021],26,64,24,64,20,23,64,66,100,88,100,100,100,100,100,100,100,22,69,83,"% cleavage MMP-9 t = 15 min [4]: 60%; % cleavage MMP-9 t = 60 min [4]: 98%; % cleavage MMP-9 t = 120 min [4]: 100%; % cleavage uPA t = 60 min ([5]; pH 6.5, t = 60 min (Table 7)): 0%; % cleavage uPA t = 120 min ([5]; pH 6.5, t = 120 min (Table 7)): 0%; % cleavage uPA t = 60 min ([5]; pH 7.5, t = 60 min (Table 7)): 10%; % cleavage uPA t = 120 min ([5]; pH 7.5, t = 120 min (Table 7)): 19%; % cleavage uPA t = 15 min [5, 12]: 5%; % cleavage uPA t = 60 min [5, 13]: 16%; % cleavage uPA t = 120 min [5, 14]: 27%"
SGRVLRKAGPANLVG ([2Abz]SGRVLRKAGPANLVG[Tyr(3-NO2)]-NH2) [LNK014],100,100,100,100,91,93,96,97,100,97,70,100,100,100,97,95,95,25,79,100,"% cleavage MMP-9 t = 15 min [4]: 98%; % cleavage MMP-9 t = 60 min [4]: 99%; % cleavage MMP-9 t = 120 min [4]: 100%; % cleavage uPA t = 60 min ([5]; pH 6.5, t = 60 min (Table 7)): 0%; % cleavage uPA t = 120 min ([5]; pH 6.5, t = 120 min (Table 7)): 0%; % cleavage uPA t = 60 min ([5]; pH 7.5, t = 60 min (Table 7)): 0%; % cleavage uPA t = 120 min ([5]; pH 7.5, t = 120 min (Table 7)): 0%; % cleavage uPA t = 15 min [5, 12]: 0%; % cleavage uPA t = 60 min [5, 13]: 2%; % cleavage uPA t = 120 min [5, 14]: 7%"
